Test results: patent US20030119733A1, “Compositions and methods for inhibiting hepatocyte invasion by malarial sporozoites” (New York University, priority 1992, published 2003)

B1: CSFZ (Cys): residues 27-123 plus NANP (a single instance) plus residues 300-411 of P. falciparum CS protein (protein)
chain: GSSSNTRVLNELNYDNAGTNLYNELEMNYYGKQENWYSLKKNSRSLGENDDGNNNNGDNGREGKDEDKRDGNNEDNEKLRKPKHKKLKQPGDGNPDPNANPMPNDPNRNVDENANANNAVKNNNNEEPSDKHIEQYLKKIKNSISTEWSPCSVTCGNGIQVRIKPGSANKPKDELDYENDIEKKICKMEKCSSVFNVVNSSIGLIMVLSFLFL

Legend:
[1] = tested on: CS binding to HepG2 cells; test: Enzyme treatment of HepG2 cells before CS binding; set-up: species or system human; conditions: heparitinase from 5 U/ml, chondroitinase ABC from 1 U/ml; CSFZ(Cys) 5 μg/ml
Protocol: In some experiments the HepG2 cells were treated with either heparitinase (Sigma) or chondroitinase ABC (ICN) before incubation with the CS. Heparitinase treatment was performed in 0.05 M acetate buffer, pH 6.0, containing 1 mg/ml BSA and 1 mM PMSF, 5μg/ml leupeptin and pepstatin. Cells were treated for 3 hours at 37° C. and then were washed 3× with TBS before protein was added. Chondroitinase ABC treatment was performed overnight at 37° C. in 0.1 M Tris/HCl, pH 8.0, 0.03 M sodium acetate and 0.1% BSA, and washed 3× with TBS. Enzyme-treated cells were then incubated with CS as outlined above.
Paraformaldehyde-fixed HepG2 cells were preincubated with varying amounts of enzyme, washed and then incubated with 5 μg/ml of CSFZ(Cys). […] Heparitinase and chondroitinase ABC were used at initial concentrations of 5 U/ml and 1 U/ml, respectively. […] Each point represents the mean of triplicates, and percent inhibition was calculated by comparison to cells that were not treated with enzyme.

[2] = tested on: plasma membrane receptors for CS; test: Enzyme digestion of human liver sections before CS27IVC immunolabeling; assay type: binding; conditions: 2 hours 37°; chondroitinase ABC 2 U/ml, heparitinase 20 U/ml
Protocol: Normal rat kidney tissue was fixed with 4% paraformaldehyde and 1% glutaraldehyde in phosphate-buffered saline (PBS) and embedded in LR White; normal human liver was fixed similarly and embedded in Lowicryl K4M (Cerami et al., Cell 70:1021-1033, 1992). Ultrathin sections were sequentially labeled with 10-50 μg/ml CS27IVC, 15 μg/ml mAb 2A10 and a 1:30 dilution of PAG15. Prior to immunolabeling, part of the sections were incubated for 120 min at 37° C. with heparitinase and chondroitinase ABC (both ICN) using concentrations of 20 U/ml and 2 U/ml, respectively. Control specimens were incubated only with the gold markers or with mAb 2A10 and PAG15.
Human liver sections were incubated with heparitinase or chondroitinase ABC for 2 hours at 37° C., prior to immunolabeling with recombinant CS. The sections were then labelled with CS27IVC followed by mAb 2A10 and PAG15. FIGS. 8a and 8b are electron micrographs of Lowicryl K4M-embedded sections. The section of FIG. 8a was treated with 2 U/ml chondroitinase ABC (ICN) for 2 hour at 37° before the immunolabeling. The typical CS label on the space of Disse (D) and on the lateral domain of the hepatocyte plasma membrane (arrows) and on lysosomes (L) was unaltered. The patchy pattern of CS-labeled hepatocyte microvilli within the space of Disse was still present in the chondroitinase-treated sections (FIG. 8a). […]

rat liver sections = test: Staining of frozen tissue sections with recombinant CS polypeptides; assay type: binding; conditions: revealed with MAb 2A10, fluorescence; CS27IVC 50-5 μg/ml, Falciparum-2 25 μg/ml, Falciparum-1 up to 250 μg/ml
Protocol: The procedure was carried out essentially as described by Dukor P. et al., Proc. Natl. Acad. Sci. USA 67:991-997, 1970 and Imai Y. et al., J. Cell. Biol. 111:1225-1232, 1990. Rats were euthanized with CO2. Small pieces of the liver, spleen, heart, brain and lung were removed, snap frozen in liquid nitrogen, embedded in Tissue Tek O.C.T. (Miles, Inc., Naperville, Ill.), and cut into 5 μm sections. Sections were dried for 30 min., fixed for 10 min. in 4% paraformaldehyde, rinsed three times with phosphate-buffered saline (PBS), and either used immediately or stored at 4° C. in 1% BSA, 0.5% Tween, PBS (BSA/TPBS). After blocking with 100 mM glycine (pH 7.2) and with BSA/TPBS, the sections were sequentially incubated at 37° C. with recombinant proteins for 1 hr, 10 μg/ml MAb 2A10 for 45 min., and rat anti-mouse immunoglobulin conjugated to fluorescein isothiocyanate (Boehringer Mannheim, Indianapolis, Ind.) for 45 min. The slides were counterstained for 10 min. with 0.3% Evans blue, rinsed extensively in PBS, and finally observed under a fluorescence microscope. For peptide inhibition experiments, the sections were first incubated with the peptide at various concentrations in BSA/TPBS for 1 hour at 37° C., washed six times with BSA/TPBS, and then stained with 2.5 μg/ml CS recombinant protein as described above. In a few experiments, the tissues were fixed for 10 min. with methanol, acetone, or 4% paraformaldehyde containing 0.5% glutaraldehyde.
Frozen sections of various rat organs were incubated with recombinant CS27IVC polypeptide. […] The staining closely followed the sinusoidal spaces of the hepatic lobules, indicating CS binding to the hepatocyte membrane. Other areas of the liver sections and sections of other organs (spleen, lung, heart or brain) were not stained. Control sections (incubated with CS27IVC in the absence of antibody or vice versa) were not stained either.
To define the region of the CS that mediates the perisinusoidal staining various other recombinant constructs were also used in the frozen section assay.

HepG2 cells = test: HepG2 cell binding assay of recombinant CS polypeptides; set-up: species or system human; conditions: indirect immunofluorescence
Protocol: For indirect immunofluorescence, HepG2 cells (ATCC number HB8065, Rockville, Md.; Knowles, B. P., et al., Science 209:497-499, 1980) were grown on slides (Cel-Line Associates, Inc., Newfield, N.J.) overnight in minimum essential medium with 10% fetal calf serum (FCS-MEM; GIBCO, Grand Island, N.Y.), 1 mM L-glutamine (GIBCO), 3 mg/ml glucose (Sigma), 1×nonessential amino acids (GIBCO), 50 μg/ml penicillin, and 100 μg/ml streptomycin (GIBCO). For the enzyme-linked immunosorbent assay, 10^5 HepG2 cells were deposited in 96-well Falcon tissue culture plates (Becton Dickinson, Oxnard, Calif.) and grown for 24 hr. in FCS-MEM. The cells were fixed with 4% paraformaldehyde, washed three times with PBS, and stored at 4° C. in BSA/TPBS until use. Before the experiments, plates were blocked for 2 hr. at 37° C. with 1% gelatin, 0.05% Tween in PBS (pH 7.4) (gelatin/TPBS). […] After 15 min., fluorescence was read in a Fluoroskan II plate reader (Flow Lab Inc., McLean, Va.) with excitation filter 350 nm and emission filter 460 nm. […]
In order to quantify more accurately the effectiveness of various peptides in inhibiting the CS27IVC binding to hepatocytes additional experiments were performed using the human hepatoma cell line HepG2. This cell line is invaded readily by P.berghei sporozoites. […] The results, expressed in fluorescence units v. protein concentration are depicted in FIG. 6. […]

[3] = tested on: heparan sulfate proteoglycans (HSPG); test: CS/proteoglycan co-immunoprecipitation; assay type: binding, human
Protocol: All extracts and supernatants were first precleared with normal rabbit serum and Staph A cells. Then 32 μg/ml of CSFZ(Cys) or 64 μg/ml of CS27IVC, Falc-2 or Falc-1 were added for 30 minutes, followed by 10.8 μg/ml mAb 2A10 for 30 minutes, and 1% Staph A cells (final concentrations). The suspensions were shaken for 1 to 5 hours at 4° C. The Staph A cells were washed 3 times with the lysis buffer A, 2 times with lysis buffer B (10 mM Tris-HCl, pH 7.2, containing 100 mM NaCl and 0.5% NP40), 1 time with 50 mM Tris-HCl, ph 7.2, and were processed in this buffer for electrophoresis under reducing and non-reducing conditions.
Extracts of cells metabolically labeled with ^35SO4 were incubated for 30 minutes at 4° C. with 32 μg/ml of recombinant CSFZ(Cys) or 64 μg/ml Falc-1, and were immunoprecipitated with mAb 2A10 and Staph A cells. […] Immunoprecipitation with Falc-1 was negative. The SDS-PAGE patterns of the total lysate of HepG2 cells, and of the molecules co-immunoprecipitated with CSFZ(Cys) resembled the corresponding liver SDS-PAGE patterns. In kidney lysates, CSFZ(Cys) selectively immunoprecipitated a band of slightly lower molecular weight than the total kidney sulfated molecules.
Sub-confluent HepG2 cells were incubated with various concentrations of trypsin for 5 minutes at 4° C. […] Independently of the trypsin concentration, about 80% of the released HSPG was co-immunoprecipitated by 32 μg/ml CSFZ(Cys) and 10.8 μg/ml mAb 2A10. Under the same conditions, Falc-1 was negative.
^35SO4-labeled trypsin-released proteoglycan (total supernatant) was precipitated by CSFZ(Cys) (32 μg/ml), Falc-2 (64 μg/ml), CS27IVC (64 μg/ml) and Falc-1 (64 μg/ml). The labeled molecules were incubated with CSFZ(Cys), CS27IVC, and Falc-2 at equivalent concentrations of Region II+, and co-immunoprecipitated with the mAb 2A10. CSFZ(Cys), lacking most of the repeat region, precipitated up to 86% of the total sulfate-labeled proteoglycans (see FIG. 14), while CS27IVC and Falc-2 precipitated only 18% and 6% of the counts, respectively. Falc-1, which lacks Region II+, was negative.
Subconfluent sulfate-labeled HepG2 cells were incubated with 20 μg/ml trypsin for 5 minutes at 4° C., and the supernatants were loaded onto an anion exchange chromatography Pharmacia mono-Q column. These were eluted with a 0 to 2 M NaCl gradient in the presence of 7 M urea. […] Protein was not detectable in the labeled peaks. One ml fractions were collected and counted.

Molecule | effect of enzyme treatment of HepG2 cells on CS binding [1] | CS27IVC label on human liver sections after enzyme treatment [2] | binding (staining) to frozen liver sections (rat liver sections) | binding to HepG2 cells (HepG2 cells) | co-immunoprecipitation of 35SO4-labeled sulfated molecules ([3]; lysates of rat liver, HepG2 cells, kidney, CSFZ(Cys) 32 μg/ml, others 64 μg/ml) | counts in the mono-Q peak co-immunoprecipitated ([3]; peak at 0.6 to 0.8 M NaCl) | released HSPG co-immunoprecipitated ([3]; trypsin-released from HepG2 cells, CSFZ(Cys) 32 μg/ml, mAb 2A10 10.8 μg/ml) | total sulfate-labeled proteoglycans precipitated ([3]; trypsin-released proteoglycan, equivalent concentrations of Region II+)
chondroitinase ABC | no effect | unaltered | – | – | – | – | – | –
B1 | – | – | bound with the same pattern as CS27IVC | bound | co-immunoprecipitated sulfated molecules | about 80% | about 80% | up to 86%
